Laboratory results from publication PMC10284417.

Target: EtpA^1-606 (Enterotoxigenic Escherichia coli (ETEC))
Experiment: dynamic light scattering; Zetasizer, 4°C, 1 mg/mL protein in 20 mM Tris pH 7.5, 150 mM NaCl

EtpA^1-606 (domain or fragment)
stoichiometry N: 2
